The text below walks through data of publication PMC8085985.

The test has as its target Fervidobacterium islandicum AW‐1 SufS family cysteine desulfurase (FiSufS) (Fervidobacterium islandicum AW-1). Nature of the test: SEC. Background: In gel filtration, larger molecules generally elute earlier.

Regarding “Fervidobacterium islandicum AW‐1 SufS family cysteine desulfurase (FiSufS) (enzyme)”, the stoichiometry N (in general, a count of units in the complex or per binding partner) is 2.
